# T1: CXCL11_HUMAN (human, UniProt O14625 22-94)
# T1 chain: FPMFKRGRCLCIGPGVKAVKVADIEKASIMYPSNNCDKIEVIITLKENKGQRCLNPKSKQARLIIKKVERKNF
# Columns and labels:
# Assay in all cases: BLI
# [1] = molecular target: CXCL8_HUMAN (human, UniProt P10145 28-99)
# [2] = molecular target: CXCL1_HUMAN (human, UniProt P09341 35-107)
# [3] = molecular target: CXCL6
# [4] = molecular target: CXCL2
# [5] = molecular target: CXCL5
# [6] = molecular target: CXCL13
# [7] = molecular target: CXCL3_HUMAN (human, UniProt P19876 35-107)
# [8] = molecular target: CXCL4
# [9] = molecular target: CXCL10_HUMAN (human, UniProt P02778 22-98)
# [10] = molecular target: T1, CXCL11_HUMAN
# Sequence of CXCL1_HUMAN (P09341 35-107): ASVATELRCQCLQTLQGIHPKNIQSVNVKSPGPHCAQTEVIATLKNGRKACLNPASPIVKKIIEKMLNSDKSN
# Sequence of CXCL3_HUMAN (P19876 35-107): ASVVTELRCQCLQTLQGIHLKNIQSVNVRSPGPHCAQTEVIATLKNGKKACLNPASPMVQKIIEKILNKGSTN
# Sequence of CXCL10_HUMAN (P02778 22-98): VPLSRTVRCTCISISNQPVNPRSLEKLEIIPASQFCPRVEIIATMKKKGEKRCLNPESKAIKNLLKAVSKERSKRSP
# Sequence of CXCL8_HUMAN (P10145 28-99): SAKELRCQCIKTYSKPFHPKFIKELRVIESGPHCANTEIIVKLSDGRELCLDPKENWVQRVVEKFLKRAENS
Binder,Kd [1],Kd [2],Kd [3],Kd [4],Kd [5],Kd [6],Kd [7],Kd [8],Kd [9],Kd [10]
P1170_IXORI (other) LGDEDQLFSVEYCGTNCTQQDDGKWTPCSGKNGKCKCYHEDGKRYGLCLYTEYTDFSQYPNPEGSEIENTRPRP,12.3 nM,59.6 nM,–,–,–,–,–,–,–,–
P458_IXORI (other) GSKQPGAAGSSSDSVEAVFCPTNCTKGTNGAWSGCSDDCICVHVGENTEGSCMKFSGDYDYPTPEA,–,16.6 nM,4.97 nM,4.55 nM,19.1 nM,13.8 nM,7.83 nM,–,–,–
P1174_IXORI (other) LNNENELFSVEYCGANCTQQDNGSWTKCKGNCTCYHEDGKRYGLCLSTEYTDFTQFPKPTSEEIADASPRPKETNSH,81.7 nM,15.4 nM,–,–,–,–,–,–,–,–
P1080_IXORI (other) SAGSKGSSAPQSSGDSVVAEFCDTNCTMKKDGKWTECNGDCFCVHVGNETVGRCMRLDGDYDYTSSKTTRRNKKTRNGLCRLDRNRTTVDYPERNTREP,–,55.1 nM,11 nM,392 nM,56.6 nM,1110 nM,124 nM,2310 nM,1260 nM,73.3 nM
P1134_IXORI (other) NEEVFTVEYCGMNCTQKSDGTWTECSGKNKDCRCYHESDAREGLCLSTEYTDFSQFETPSNSDLEAATPRPRKTLYPVRNPHGPKTRGLGYDKRILRDRVKFLI,–,27.3 nM,–,–,–,–,–,–,–,–
EVA3_RHISA (protein) LVSTIESRTSGDGADNFDVVSCNKNCTSGQNECPEGCFCGLLGQNKKGHCYKIIGNLSGEPPVVRR,2.57 nM,5.73 nM,–,–,–,–,7.37 nM,–,–,–
P1128_IXORI (other) KDDEHFSVDYCGMNCTQQEDGSWTACSGRNEECRCYHESGKKNGLCLSTTYIDFSQYGNPSDSDIAAASPRP,2.3 nM,0.722 nM,–,5.57 nM,62.2 nM,–,38.5 nM,–,–,–
P1127_IXORI (other) AGKDDEHFSVDYCGMNCTQQEDGSWTACSGRNGECRCYHESGKRSGLCLSTTYIDFSEYGNLSDSDIAAASPRLSMKESH,13.3 nM,1.42 nM,–,27.8 nM,26.6 nM,–,68.8 nM,–,–,–
P1096_IXORI (other) HTTVTGSVEGKPNNPNEDIEVSYCRMNCTVENGVSSACSGDCVCVHRDNEPNGICVEITYFGDFGDPSQDPSIDEAAPRESVSKRRSNGES,44.7 nM,–,–,–,–,–,–,–,–,–
P942_IXORI (other) NQLSGPQSSANSNEAVFCDTNCTQGTDEAWSGCRGDCFCVYVGNSTEGRCMMLSGDFDYSTPGAED,–,3.09 nM,7.28 nM,6.48 nM,21.1 nM,39.5 nM,5.04 nM,148 nM,133 nM,12.4 nM
P1095_IXORI (other) HSPVAGSEVQKLTSDPNDDIDVSYCGMNCTVVNGKSDECSENCKCLHEGDDPKGICVAITYFGDWGDPNDDPKINEATPQTQIFEKKRK,110 nM,–,–,–,–,–,–,–,–,–
P1077_IXORI (other) GSKQLIGPQSSTNSIKAEFCDTNCTAGTNGIWNGCSGDCFCTHVGNSTEGRCMKITGFDEYPTSEAEE,–,7.53 nM,29.3 nM,264 nM,55.7 nM,–,16 nM,–,–,538 nM
P1104_IXORI (other) ESKEASASQGPGKSFKVEFCETNCTENNGVWSGCTGDCICVSVGDSKEGRCMDLGDKVIDTPVAQG,–,14.4 nM,34.3 nM,82.3 nM,245 nM,220 nM,43.7 nM,–,–,–
P675_IXORI (other) GSNQLSGPQSSANSNDAVFCDTNCTQGTDGAWSGCRGDCFCVHVGNSTEGRCIELIGDFDYSTPGAED,–,9.99 nM,7.68 nM,24.8 nM,34.2 nM,582 nM,35.7 nM,422 nM,3120 nM,7.73 nM
P1074_IXORI (other) GSKESSAHQSSDDSIKAEFCDAKCTMKTDGKWTQCHGGCFCVHVGNETEGRCMRLDGDYDYPSTQPEE,–,27.8 nM,–,–,42.7 nM,95.8 nM,24 nM,157 nM,40.7 nM,12 nM
P1229_IXORI (other) DDEFFTVDYCGMNCTLQQDGSWTPCTQKNAECKCYHESGSSVGLCLSTAYTDFNQFGDPNNSDLDAATPRHPDASSR,30.7 nM,13.4 nM,–,–,–,–,–,–,–,–
P1100_IXORI (other) GSKGSSASQSSDNSVVAKFCDTNCTINEGGKWTECKGGCFCVHVGNETVGRCMKLDGDYDYPSPKPEE,–,49.9 nM,15.2 nM,185 nM,50.8 nM,714 nM,55.9 nM,–,380 nM,102 nM
P1078_IXORI (other) GSKGSSAQQSSHDSIKAEFCETNCTMKTGGKWTQCHGGCFCVHVGNETVGRCIKLDGDYDYPSSKHEE,–,6.35 nM,9.24 nM,68.3 nM,39.2 nM,255 nM,43.8 nM,–,–,16.7 nM
P1162_IXORI (other) LNDEELFTVDYCGTNCTQQPNGSWTTCPGNCSCYHEDGKTDGFCLSTEYTDFTQFPNLTSEEMDAATPRPE,12.2 nM,2.66 nM,–,14.4 nM,32.1 nM,–,60.1 nM,–,–,–
P1172_IXORI (other) LHEDEIFTVDYCGTNCTKQSNGSWTTCPGNCSCYHEDGKTDGFCLSTEYTDFTQFPNLTSEEMDAATPRPE,26.7 nM,5.59 nM,–,26 nM,59.3 nM,–,–,–,–,–
P1168_IXORI (other) GQDTDGKEKSDEYELFTVEYCGTNCTQLENGSWTACTGKNGTCRCFHENDKKVGLCLSTEYTDFSEYPDPNSEEIKAASPLP,20.7 nM,5.91 nM,–,29.9 nM,–,–,–,–,–,–
P1124_IXORI (other) DSKGTSDSQDSTKSIKVDFCETNCTKTDGGWTGCTGDCICVSVGDSIEGRCMDFG,–,7.61 nM,231 nM,13.8 nM,26.4 nM,256 nM,8.84 nM,–,–,–
P1090_IXORI (other) GSKELSGPESSENSIEAAFCDTNCTEGTDGVWSGCSAGCFCVHVGNSTVGRCMTFNGVDGG,–,3.55 nM,2.82 nM,3.03 nM,43 nM,12.5 nM,7.67 nM,–,23.9 nM,3.85 nM
P1132_IXORI (other) LSDEDELFSVEYCGTNCTKQDTGSWTTCSGNCTCYHEDGKKVGLCLSTEYTDFTKFPKPTSEEIANARPLPKREKTLN,32.8 nM,11.9 nM,–,18.6 nM,152 nM,–,–,–,–,–
P1086_IXORI (other) GSKGQRASQVSETSITAEFCDTSCTQGTDKTWSGCSGDCFCVHVGNDTEGRCMRWDGDYPSAEEEE,–,11.4 nM,10.7 nM,34 nM,26 nM,22.7 nM,15.2 nM,–,18.7 nM,–
P1166_IXORI (other) GPETKEDKKSDVYELFTVEYCGTNCTLLTNGRWTACTGKKGTCRCYHESGEKVGLCLSTEYTDFSEYPNPKSSEIDAAAPLPRETH,129 nM,12.9 nM,–,149 nM,–,–,–,–,–,–

# Source: patent US20200247855A1 (published 2020)
